Data on nine molecules can be found in patent US20060140967A1 (US Dept. of Health and Human Services, published 2006).

B1: TARP-2-9 (peptide)
peptide: QMFPPSPL
notes: The limits should be checked against the listing

For one assay, the target named is T1, HLA-A2.1 molecules on TAP-deficient T2 cells (human).
T1 construct: MHC class I molecule on T2 cells; also called HLA-A2 molecules
The assay can be described thus: T2 binding assay, flow cytometry.
Method: (§1) T2-binding assay. […] After washing, cells were stained with FITC-labeled goat anti-mouse Ig (PharMingen, San Diego, Calif.) and the level of HLA-A2.1 expression was measured by flow cytometry. HLA-A2.1 expression was quantified as fluorescence index (FI) according to the formula: FI=(mean fluorescence intensity with peptide-mean fluorescence intensity without peptide)/mean fluorescence intensity without peptide.
With FLFLRNFSL [TARP-27-35-2L], the binding result is “binds”.

Take FVFLRNFSV [TARP-27-35-9V]: the binding result is reported as “binds”.

Regarding FLRNFSLML (also called wild-type peptide) [TARP-29-37], the binding result is “binds”.

With FLRNFSLMV [TARP-29-37-9V], the binding result is on record as “binds”.

For the molecule FLANFSLML [TARP-29-37-3A], the binding result is on record as “binds”.

Another assay concerns the target T1, HLA-A2.1 molecules on TAP-deficient T2 …. The assay can be described thus: T2 binding assay, flow cytometry with anti-HLA-A2.1.
Method: as §1
(§2) To determine HLA-A2.1 epitopes from the TARP, four different wild-type peptides were first predicted based on the anchor residues (FIG. 1B) and their binding affinities to HLA-A2.1 molecules were measured by the T2-binding assay.
With RLEHTFVFL [TARP-22-30], the binding result is reported as “no binding”.

As for B1, the binding result is on record as “no binding”.

Take FVALRNFSL [TARP-27-35 with substitution with Ala at position 3]: the binding result is “no binding”.

The next assay has the same target. The experiment in a line: T2 binding assay, flow cytometry; reference TARP-29-37. (A flow cytometer gives signals particle by particle.)
Method: as §1, §2
With FVFLRNFSL [TARP-27-35], the “fold higher binding affinity than TARP-29-37” value is around 10 fold.
